Test results taken from PMC2270309, “Insights into Mad2 Regulation in the Spindle Checkpoint Revealed by the Crystal Structure of the Symmetric Mad2 Dimer” (PLoS Biology, 2008).

Columns and labels:
His6-O-Mad2^ΔN10 (human) = assay: SEC; gel filtration of the high-salt peak (Q2) of anion exchange chromatography (holds the C-Mad2 conformer)
[1] = target: Mad2^L13A,R133A double mutant (human, UniProt Q13257 1-205, L13A | R133A); assay: ITC
[2] = target: Mad2^L153A (in the background of R133A) (human, UniProt Q13257 1-205, L153A | R133A); assay: ITC
Mad2^R133A = Mad2^R133A (human, UniProt Q13257 1-205, R133A); assay: ITC
[3] = target: Mad2^Y156A (in the background of R133A) (human, UniProt Q13257 1-205, Y156A | R133A); assay: ITC
[4] = target: the molecule itself; assay: SEC; gel filtration of the high-salt peak (Q2) of anion exchange chromatography (holds the C-Mad2 conformer)
[5] = target: the molecule itself; assay: AUC; sedimentation equilibrium at 4 °C; 0.23, 0.36 and 0.50 mg/ml; 20 mM Tris pH 8.0, 50 mM NaCl, 0.2 mM TCEP; 13,000, 17,500 and 25,000 rpm; global fit to a monomer-dimer equilibrium; dimer to monomers
Human Cdc20 = Human Cdc20 (human, UniProt Q12834 1-499); assay: cell-based or functional assay
Chain of Human Cdc20 (Q12834 whole entry): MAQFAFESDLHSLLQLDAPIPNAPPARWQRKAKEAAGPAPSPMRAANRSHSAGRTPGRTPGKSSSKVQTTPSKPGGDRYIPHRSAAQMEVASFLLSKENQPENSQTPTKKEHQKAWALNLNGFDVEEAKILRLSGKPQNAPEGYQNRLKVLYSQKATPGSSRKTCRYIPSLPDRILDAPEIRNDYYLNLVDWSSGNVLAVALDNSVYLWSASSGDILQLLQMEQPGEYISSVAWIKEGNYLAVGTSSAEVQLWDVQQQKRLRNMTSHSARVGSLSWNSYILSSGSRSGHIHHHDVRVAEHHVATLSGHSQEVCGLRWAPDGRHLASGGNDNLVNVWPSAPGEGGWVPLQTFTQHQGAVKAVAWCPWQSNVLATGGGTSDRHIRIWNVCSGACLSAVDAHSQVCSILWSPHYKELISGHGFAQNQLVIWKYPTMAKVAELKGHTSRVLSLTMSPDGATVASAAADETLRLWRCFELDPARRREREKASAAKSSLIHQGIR

**Q.** With “untagged C-Mad2^ΔN10 (domain or fragment)” as the molecule, how does the stoichiometry N (His6-O-Mad2^ΔN10 (human)) read?
**A.** 1

B1: Mad2-binding motif of Cdc20 (domain or fragment)
chain: EHQKAWALNLNGFDVEEAKILRLSGKPQ
modifications: Limits not printed. 111-138 is the conventional Mad2-binding fragment of human Cdc20 around the KILR motif (129-132). Check residues come from the candidate's motif feature, not from the paper.
**Q.** For B1, which Kd [1] is on record?
**A.** 120 nM

**Q.** And the Kd [2]?
**A.** 210 nM

**Q.** And the Kd (Mad2^R133A)?
**A.** 140 nM

**Q.** And the Kd [3]?
**A.** 560 nM

B2: Mad2^L13A,C79S,C106S triple mutant (natural protein, human, UniProt Q13257 1-205, looked up)
chain: MALQLSREQGITARGSAEIVAEFFSFGINSILYQRGIYPSETFTRVQKYGLTLLVTTDLELIKYLNNVVEQLKDWLYKSSVQKLVVVISNIESGEVLERWQFDIESDKTAKDDSAPREKSQKAIQDEIRSVIRQITATVTFLPLLEVSCSFDLLIYTDKDLVVPEKWEESGPQFITNSEEVRLRSFTTTIHKVNSMVAYKIPVND
notes: Mad2, human, coding region (205 residues), with L13A, C79S and C106S; also called Mad2^L13A dimer; symmetric C–C Mad2 dimer; source: E. coli BL21 (pGEX), purified (glutathione-Sepharose, TEV cleavage, anion exchange, gel filtration)
**Q.** Which “stoichiometry N” value [4] does the source give for B2 here?
**A.** 2

**Q.** And the Kd [5]?
**A.** 250 nM

**Q.** And the “stoichiometry N” value [5]?
**A.** ~2

**Q.** And the “inhibition of APC/C^Cdc20 in an in vitro reconstituted APC/C ubiquitination assay (Myc-cyclin B1); Mad2 dimers at 1–16 μM preincubated with Cdc20 for 30 min” value (Human Cdc20)?
**A.** ~3 fold
